The record followed here is US20090075314A1 (DUKE UNIVERSITY, published 2009).

The target in assay [1] is T1, human gastrin/CCK-B receptor (human, UniProt P32239 1-447).
T1 construct: Permanently expressed with arrestin-GFP in HEK-293 cells (Clone A); also called gastrin receptor; homo sapiens cholecystokinin B receptor
T1 sequence: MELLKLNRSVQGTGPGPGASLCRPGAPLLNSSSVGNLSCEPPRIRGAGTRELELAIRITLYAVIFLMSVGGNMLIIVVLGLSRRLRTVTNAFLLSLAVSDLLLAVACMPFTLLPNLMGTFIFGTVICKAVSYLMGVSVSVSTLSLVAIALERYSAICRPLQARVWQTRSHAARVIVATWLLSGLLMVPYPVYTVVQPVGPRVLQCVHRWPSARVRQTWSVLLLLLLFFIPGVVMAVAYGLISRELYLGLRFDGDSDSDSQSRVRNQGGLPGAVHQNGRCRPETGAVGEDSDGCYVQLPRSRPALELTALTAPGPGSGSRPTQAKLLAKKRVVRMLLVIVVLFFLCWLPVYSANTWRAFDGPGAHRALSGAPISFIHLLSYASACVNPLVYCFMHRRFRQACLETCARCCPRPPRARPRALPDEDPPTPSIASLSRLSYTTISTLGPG
Description: cell-based or functional assay.

Assay [2] concerns the target T1, human gastrin/CCK-B receptor. Description: derived from competitive displacement of [3H]CCK-8 from Clone A by hG17. On the procedure: (§1) Membrane Preparation/Binding—All steps were performed at 4° C. Membrane binding was performed in triplicate as described in Shetzline et al., J. Biol. Chem. 273:[…] (1998). Membrane fractions were assayed immediately or stored at −80° C. […] Data were analyzed using Graph Pad-Prism.
(§2) Data are presented as mean±SEM.
In general terms: Loss of bound radioactivity is the signal in a displacement assay; it reports binding, not function.

Assay [3] has the same target. Description: competitive displacement of [3H]CCK-8 from Clone A by hG17. As to the method:
as §1, §2

No end group written: not given here.

Regarding pentagastrin (peptide), in assay [1], the arrestin-GFP translocation (TI/TF, two hours at 37° C.) turned out to be 2.4 nM.

Consider QGPWLEEEEEAYGWMDF-NH2 (peptide, UniProt P01350 76-92, looked up, domain: gastrin-17; also called hGl 7) [synthetic human gastrin-17 peptide (hG17)], for which the Kd – broadly, the free concentration of one partner at which half of the binding sites on the other are occupied at equilibrium, for simple one-to-one binding – in assay [2] stood at 17 nM. Also, the response in assay [3] was half-maximal at 28 nM (EC50).
